Test results: paper PMC3908897

Substrate: O=C(O)CCC(=O)C1=CC=C[C@@H](O)[C@@H]1C(=O)O
Assay: purified protein
Format: biochemical, Thermobifida fusca
Settings: 50 mM Tris pH 8.0, 0.1 mM MnCl2, 25°C

Protein | Km | kcat | kcat/Km
T. fusca OSBS (Thermobifida fusca YX; N71A) (protein) MTGRAFAIPLRTRFRGITVREGMLVRGAAGWGEFSPFAEYGPRECARWWAACYEAAELGWPAPVRDTVPVAATVPAVGPEEAARIVASSGCTTAKVKVAERGQSEANDVARVEAVRDALGPRGRVRIDVNGAWDVDTAVRMIRLLDRFELEYVEQPCATVDELAEVRRRVSVPIAADESIRRAEDPLRVRDAEAADVVVLKVQPLGGVRAALRLAEECGLPVVVSSAVETSVGLAAGVALAAALPELPYACGLATLRLLHADVCDDPLLPVHGVLPVRRVDVSEQRLAEVEIDPAAWQARLAAARAAWEQVEREPGP | 322 ± 56 µM | 10 ± 0.7 s⁻¹ | 31000 M⁻¹ s⁻¹
T. fusca OSBS (Thermobifida fusca YX) (protein) MTGRAFAIPLRTRFRGITVREGMLVRGAAGWGEFSPFAEYGPRECARWWAACYEAAELGWPAPVRDTVPVNATVPAVGPEEAARIVASSGCTTAKVKVAERGQSEANDVARVEAVRDALGPRGRVRIDVNGAWDVDTAVRMIRLLDRFELEYVEQPCATVDELAEVRRRVSVPIAADESIRRAEDPLRVRDAEAADVVVLKVQPLGGVRAALRLAEECGLPVVVSSAVETSVGLAAGVALAAALPELPYACGLATLRLLHADVCDDPLLPVHGVLPVRRVDVSEQRLAEVEIDPAAWQARLAAARAAWEQVEREPGP | 182 ± 22 µM | 122 ± 4.6 s⁻¹ | 670000 M⁻¹ s⁻¹
T. fusca OSBS (Thermobifida fusca YX; G252T) (protein) MTGRAFAIPLRTRFRGITVREGMLVRGAAGWGEFSPFAEYGPRECARWWAACYEAAELGWPAPVRDTVPVNATVPAVGPEEAARIVASSGCTTAKVKVAERGQSEANDVARVEAVRDALGPRGRVRIDVNGAWDVDTAVRMIRLLDRFELEYVEQPCATVDELAEVRRRVSVPIAADESIRRAEDPLRVRDAEAADVVVLKVQPLGGVRAALRLAEECGLPVVVSSAVETSVGLAAGVALAAALPELPYACTLATLRLLHADVCDDPLLPVHGVLPVRRVDVSEQRLAEVEIDPAAWQARLAAARAAWEQVEREPGP | 668 ± 72 µM | 13 ± 0.7 s⁻¹ | 19000 M⁻¹ s⁻¹
T. fusca OSBS (Thermobifida fusca YX; R15A) (protein) MTGRAFAIPLRTRFAGITVREGMLVRGAAGWGEFSPFAEYGPRECARWWAACYEAAELGWPAPVRDTVPVNATVPAVGPEEAARIVASSGCTTAKVKVAERGQSEANDVARVEAVRDALGPRGRVRIDVNGAWDVDTAVRMIRLLDRFELEYVEQPCATVDELAEVRRRVSVPIAADESIRRAEDPLRVRDAEAADVVVLKVQPLGGVRAALRLAEECGLPVVVSSAVETSVGLAAGVALAAALPELPYACGLATLRLLHADVCDDPLLPVHGVLPVRRVDVSEQRLAEVEIDPAAWQARLAAARAAWEQVEREPGP | 7 ± 1.4 µM | 0.6 ± 0.02 s⁻¹ | 86000 M⁻¹ s⁻¹
T. fusca OSBS (Thermobifida fusca YX; F37A) (protein) MTGRAFAIPLRTRFRGITVREGMLVRGAAGWGEFSPAAEYGPRECARWWAACYEAAELGWPAPVRDTVPVNATVPAVGPEEAARIVASSGCTTAKVKVAERGQSEANDVARVEAVRDALGPRGRVRIDVNGAWDVDTAVRMIRLLDRFELEYVEQPCATVDELAEVRRRVSVPIAADESIRRAEDPLRVRDAEAADVVVLKVQPLGGVRAALRLAEECGLPVVVSSAVETSVGLAAGVALAAALPELPYACGLATLRLLHADVCDDPLLPVHGVLPVRRVDVSEQRLAEVEIDPAAWQARLAAARAAWEQVEREPGP | 666 ± 151 µM | 163 ± 19 s⁻¹ | 250000 M⁻¹ s⁻¹
T. fusca OSBS (Thermobifida fusca YX; R126M) (protein) MTGRAFAIPLRTRFRGITVREGMLVRGAAGWGEFSPFAEYGPRECARWWAACYEAAELGWPAPVRDTVPVNATVPAVGPEEAARIVASSGCTTAKVKVAERGQSEANDVARVEAVRDALGPRGRVMIDVNGAWDVDTAVRMIRLLDRFELEYVEQPCATVDELAEVRRRVSVPIAADESIRRAEDPLRVRDAEAADVVVLKVQPLGGVRAALRLAEECGLPVVVSSAVETSVGLAAGVALAAALPELPYACGLATLRLLHADVCDDPLLPVHGVLPVRRVDVSEQRLAEVEIDPAAWQARLAAARAAWEQVEREPGP | 470 ± 42 µM | 104 ± 4 s⁻¹ | 220000 M⁻¹ s⁻¹
T. fusca OSBS (Thermobifida fusca YX; G252A) (protein) MTGRAFAIPLRTRFRGITVREGMLVRGAAGWGEFSPFAEYGPRECARWWAACYEAAELGWPAPVRDTVPVNATVPAVGPEEAARIVASSGCTTAKVKVAERGQSEANDVARVEAVRDALGPRGRVRIDVNGAWDVDTAVRMIRLLDRFELEYVEQPCATVDELAEVRRRVSVPIAADESIRRAEDPLRVRDAEAADVVVLKVQPLGGVRAALRLAEECGLPVVVSSAVETSVGLAAGVALAAALPELPYACALATLRLLHADVCDDPLLPVHGVLPVRRVDVSEQRLAEVEIDPAAWQARLAAARAAWEQVEREPGP | 86 ± 6 µM | 16 ± 0.3 s⁻¹ | 190000 M⁻¹ s⁻¹

Substrate: O=C(O)CCC(=O)C1=CC=C[C@@H](O)[C@@H]1C(=O)O
Assay: purified protein
Format: biochemical, Escherichia coli
Settings: 50 mM Tris pH 8.0, 0.1 mM MnCl2, 25°C
Remark: another data set of the same source

Protein | Km | kcat | kcat/Km
E. coli OSBS (Escherichia coli K-12; A107N) (protein) MRSAQVYRWQIPMDAGVVLRDRRLKTRDGLYVCLREGEREGWGEISPLPGFSQETWEEAQSVLLAWVNNWLAGDCELPQMPSVAFGVSCALAELTDTLPQAANYRANPLCNGDPDDLILKLADMPGEKVAKVKVGLYEAVRDGMVVNLLLEAIPDLHLRLDANRAWTPLKGQQFAKYVNPDYRDRIAFLEEPCKTRDDSRAFARETGIAIAWDESLREPDFAFVAEEGVRAVVIKPTLTGSLEKVREQVQAAHALGLTAVISSSIESSLGLTQLARIAAWLTPDTIPGLDTLDLMQAQQVRRWPGSTLPVVEVDALERLL | 109 ± 17 µM | 32 ± 1.9 s⁻¹ | 290000 M⁻¹ s⁻¹
E. coli OSBS (Escherichia coli K-12; R20S) (protein) MRSAQVYRWQIPMDAGVVLSDRRLKTRDGLYVCLREGEREGWGEISPLPGFSQETWEEAQSVLLAWVNNWLAGDCELPQMPSVAFGVSCALAELTDTLPQAANYRAAPLCNGDPDDLILKLADMPGEKVAKVKVGLYEAVRDGMVVNLLLEAIPDLHLRLDANRAWTPLKGQQFAKYVNPDYRDRIAFLEEPCKTRDDSRAFARETGIAIAWDESLREPDFAFVAEEGVRAVVIKPTLTGSLEKVREQVQAAHALGLTAVISSSIESSLGLTQLARIAAWLTPDTIPGLDTLDLMQAQQVRRWPGSTLPVVEVDALERLL | 22 ± 0.1 µM | 0.5 ± 0.1 s⁻¹ | 23000 M⁻¹ s⁻¹
E. coli OSBS (Escherichia coli K-12; L109T) (protein) MRSAQVYRWQIPMDAGVVLRDRRLKTRDGLYVCLREGEREGWGEISPLPGFSQETWEEAQSVLLAWVNNWLAGDCELPQMPSVAFGVSCALAELTDTLPQAANYRAAPTCNGDPDDLILKLADMPGEKVAKVKVGLYEAVRDGMVVNLLLEAIPDLHLRLDANRAWTPLKGQQFAKYVNPDYRDRIAFLEEPCKTRDDSRAFARETGIAIAWDESLREPDFAFVAEEGVRAVVIKPTLTGSLEKVREQVQAAHALGLTAVISSSIESSLGLTQLARIAAWLTPDTIPGLDTLDLMQAQQVRRWPGSTLPVVEVDALERLL | 83 ± 17 µM | 3.6 ± 0.3 s⁻¹ | 43000 M⁻¹ s⁻¹

Substrate: O=C(O)CCC(=O)C1=CC=C[C@@H](O)[C@@H]1C(=O)O
Assay: purified protein
Format: biochemical, Thermosynechococcus vestitus
Settings: 50 mM Tris pH 8.0, 0.1 mM MnCl2, 25°C
Remark: another data set of the same source

Protein | Km | kcat | kcat/Km
T. elongatus OSBS (Thermosynechococcus vestitus BP-1) (protein) MRWQWRIYEEPLQEPLTTAQGVWRSRSGIYLRLEDEQGQVGYGEIAPLPGWGSETLNADIALCQQLPGHLTPEIMATIPEALPAAQFGFATAWQSVGRLPYRVRPWPICALLGSGQAALEQWQQSWQRGQTTFKWKVGVMSPEEEQAILKALLAALPPGAKLRLDANGSWDRATANRWFAWLDRHGNGKIEYVEQPLPPDQWQALLSLAQTVTTAIALDESVVSAAEVQRWVDRGWPGFFVIKTALFGDPDSLSLLLRRGLEPQRLVFSSALEGAIARTAIFHLLETWQPCHALGFGVDRWRSAPLLTTLTAYERLWERLDQ | 78 ± 17 µM | 80 ± 4 s⁻¹ | 1e+06 M⁻¹ s⁻¹
T. elongatus OSBS (Thermosynechococcus vestitus BP-1; G295A) (protein) MRWQWRIYEEPLQEPLTTAQGVWRSRSGIYLRLEDEQGQVGYGEIAPLPGWGSETLNADIALCQQLPGHLTPEIMATIPEALPAAQFGFATAWQSVGRLPYRVRPWPICALLGSGQAALEQWQQSWQRGQTTFKWKVGVMSPEEEQAILKALLAALPPGAKLRLDANGSWDRATANRWFAWLDRHGNGKIEYVEQPLPPDQWQALLSLAQTVTTAIALDESVVSAAEVQRWVDRGWPGFFVIKTALFGDPDSLSLLLRRGLEPQRLVFSSALEGAIARTAIFHLLETWQPCHALAFGVDRWRSAPLLTTLTAYERLWERLDQ | 304 ± 82 µM | 4 ± 0.4 s⁻¹ | 13000 M⁻¹ s⁻¹
